Source: PMC9482650, “Quantitative fragmentomics allow affinity mapping of interactomes” (Nature Communications, 2022)

T1: CNKSR1, Q969H4
T1 sequence (Q969H4 191-295, limits assumed, looked up): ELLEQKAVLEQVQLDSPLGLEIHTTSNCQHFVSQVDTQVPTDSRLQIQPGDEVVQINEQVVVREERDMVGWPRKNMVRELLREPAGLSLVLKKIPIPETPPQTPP

T2: RGS12, O14924
T2 sequence (O14924 17-108, limits assumed, looked up): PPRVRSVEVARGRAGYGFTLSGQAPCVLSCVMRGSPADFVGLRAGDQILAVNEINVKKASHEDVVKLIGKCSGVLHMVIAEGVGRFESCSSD

T3: LNX2_1, Q8N448
T3 sequence (Q8N448 228-328, limits assumed, looked up): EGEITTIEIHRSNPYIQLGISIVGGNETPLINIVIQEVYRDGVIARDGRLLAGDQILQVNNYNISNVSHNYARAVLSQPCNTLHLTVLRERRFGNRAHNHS

B1: KCNA5, P22460 (peptide)
chain: CLDTSRETDL
B2: MAP2K2, P36507 (peptide)
chain: QPGTPTRTAV
B3: RPS6KA1, Q15418 (peptide)
chain: RRVRKLPSTTL
B4: PTEN, P60484 (peptide)
chain: DEDQHTQITKV
B5: HTLV1-TAX1, P03409 (peptide)
chain: SEKHFRETEV
B6: PBK, Q96KB5 (peptide)
chain: HIVEALETDV
B7: ARHGEF16, Q5VV41 (peptide)
chain: MERLRVETDV
B8: CBP, Q92793 (peptide)
chain: TGDTLEKFVEGL
B9: MERS-E, K9N5R3 (peptide)
chain: DSKPPLPPDEWV
B10: ASIC3, Q9UHC3 (peptide)
chain: HRTCYLVTQL
B11: HPV51-E6, P26554 (peptide)
chain: RTRQRNETQV

Assays:
Experiment in all cases: holdup assay
Parameters in all cases: key: below the threshold = too weak to quantify, mostly under pKd 3.1 to 4
CNKSR1, Q969H4 = molecular target: T1, CNKSR1, Q969H4
GIPC3, Q8TF64 = molecular target: GIPC3, Q8TF64
Sequence of GIPC3, Q8TF64 (Q8TF64 107-202): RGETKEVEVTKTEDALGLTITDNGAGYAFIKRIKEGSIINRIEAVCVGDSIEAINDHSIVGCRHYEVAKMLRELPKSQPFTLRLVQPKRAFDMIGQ

O00233 = conditions: plain residues with an end cap or a label only (N-terminal biotin on a linker: ttds)
O15021 = conditions: plain residues with an end cap or a label only (N-terminal biotin on a linker: ttds)
O43166 = conditions: plain residues with an end cap or a label only (N-terminal biotin on a linker: ttds)
Q12923 = conditions: plain residues with an end cap or a label only (N-terminal biotin on a linker: ttds)
Q13009 = conditions: plain residues with an end cap or a label only (N-terminal biotin on a linker: ttds)
Q13368 = conditions: plain residues with an end cap or a label only (N-terminal biotin on a linker: ttds)
Q5TCQ9 = conditions: plain residues with an end cap or a label only (N-terminal biotin on a linker: ttds)
Q70Z35 = conditions: plain residues with an end cap or a label only (N-terminal biotin on a linker: ttds)
Q92614 = conditions: plain residues with an end cap or a label only (N-terminal biotin on a linker: ttds)
Q96FS4 = conditions: plain residues with an end cap or a label only (N-terminal biotin on a linker: ttds)
Q96HC4 = conditions: plain residues with an end cap or a label only (N-terminal biotin on a linker: ttds)
Q96JB8 = conditions: plain residues with an end cap or a label only (N-terminal biotin on a linker: ttds)
Q96JY6 = conditions: plain residues with an end cap or a label only (N-terminal biotin on a linker: ttds)
Q96SB3 = conditions: plain residues with an end cap or a label only (N-terminal biotin on a linker: ttds)
Q9H190 = conditions: plain residues with an end cap or a label only (N-terminal biotin on a linker: ttds)
Q9NPB6 = conditions: plain residues with an end cap or a label only (N-terminal biotin on a linker: ttds)
Q9NR12 = conditions: plain residues with an end cap or a label only (N-terminal biotin on a linker: ttds)
Q9UDY2 = conditions: plain residues with an end cap or a label only (N-terminal biotin on a linker: ttds)
Q9UMS6 = conditions: plain residues with an end cap or a label only (N-terminal biotin on a linker: ttds)
Q9Y3R0 = conditions: plain residues with an end cap or a label only (N-terminal biotin on a linker: ttds)
RGS12, O14924 = molecular target: T2, RGS12, O14924
LNX1_4, Q8TBB1 = molecular target: LNX1_4, Q8TBB1
Sequence of LNX1_4, Q8TBB1 (Q8TBB1 631-726): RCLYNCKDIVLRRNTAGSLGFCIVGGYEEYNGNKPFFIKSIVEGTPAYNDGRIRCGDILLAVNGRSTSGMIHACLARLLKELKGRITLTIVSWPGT

LNX2_1, Q8N448 = molecular target: T3, LNX2_1, Q8N448
Q8TB45 = conditions: plain residues with an end cap or a label only (N-terminal biotin on a linker: ttds)
Q8TDM6 = conditions: plain residues with an end cap or a label only (N-terminal biotin on a linker: ttds)
[1] = plain residues with an end cap or a label only (N-terminal biotin on a linker: ttds)
[2] = plain residues with an end cap or a label only (N-terminal biotin on a linker: none)

| Binder | pKd (CNKSR1, Q969H4; [1]) | pKd (GIPC3, Q8TF64; [1]) | pKd (O00233) | pKd (O43166) | pKd (Q12923) | pKd (Q13009) | pKd (Q13368) | pKd (Q5TCQ9) | pKd (Q70Z35) | pKd (Q92614) | pKd (Q96FS4) | pKd (Q96HC4) | pKd (Q96JB8) | pKd (Q96JY6) | pKd (Q9H190) | pKd (Q9NPB6) | pKd (Q9NR12) | pKd (Q9UDY2) | pKd (Q9UMS6) | pKd (RGS12, O14924; [1]) | also measured |
| --- | --- | --- | --- | --- | --- | --- | --- | --- | --- | --- | --- | --- | --- | --- | --- | --- | --- | --- | --- | --- | --- |
| B1 | below the threshold | below the threshold | below the threshold | below the threshold | below the threshold | below the threshold | below the threshold | below the threshold | below the threshold | below the threshold | below the threshold | below the threshold | below the threshold | below the threshold | below the threshold | below the threshold | below the threshold | below the threshold | below the threshold | below the threshold | pKd (O15021): below the threshold; pKd (Q96SB3): below the threshold; pKd (Q9Y3R0): below the threshold |
| B2 | 4.07 | below the threshold | below the threshold | below the threshold | below the threshold | below the threshold | below the threshold | below the threshold | below the threshold | below the threshold | below the threshold | below the threshold | below the threshold | below the threshold | below the threshold | below the threshold | below the threshold | below the threshold | below the threshold | below the threshold | pKd (O15021): below the threshold; pKd (Q96SB3): below the threshold; pKd (Q9Y3R0): below the threshold |
| B3 | below the threshold | below the threshold |  |  |  |  |  |  |  |  |  |  |  |  |  |  |  |  |  | 3.56 | pKd (LNX1_4, Q8TBB1; [1]): below the threshold; pKd (LNX2_1, Q8N448; [1]): below the threshold |
| B4 |  |  |  |  |  |  |  |  |  |  |  |  |  |  |  |  |  |  |  |  | pKd (LNX2_1, Q8N448; [1]): below the threshold |
| B5 |  |  |  |  |  |  |  |  |  |  |  |  |  |  |  |  |  |  |  |  | pKd (LNX1_4, Q8TBB1; [1]): below the threshold; pKd (LNX2_1, Q8N448; [1]): below the threshold |
| B6 | below the threshold | below the threshold | below the threshold | below the threshold | below the threshold | below the threshold | below the threshold | below the threshold | below the threshold |  | below the threshold | below the threshold | below the threshold | below the threshold | below the threshold | below the threshold | below the threshold | below the threshold | below the threshold | below the threshold | pKd (O15021): below the threshold; pKd (Q96SB3): below the threshold; pKd (Q9Y3R0): below the threshold |
| B7 | 4.16 | below the threshold | below the threshold | below the threshold | below the threshold | below the threshold | below the threshold | below the threshold | below the threshold | below the threshold | below the threshold | below the threshold | below the threshold | below the threshold | below the threshold | below the threshold | below the threshold | below the threshold | below the threshold | below the threshold | pKd (O15021): below the threshold; pKd (Q96SB3): below the threshold; pKd (Q9Y3R0): below the threshold |
| B8 |  |  |  |  |  |  |  |  |  | below the threshold |  |  | below the threshold |  |  |  |  |  |  |  | pKd (LNX1_4, Q8TBB1; [1]): 4.65; pKd (LNX2_1, Q8N448; [1]): below the threshold |
| B9 |  |  |  |  |  |  |  |  |  |  |  |  |  |  |  |  |  |  |  |  | pKd (CNKSR1, Q969H4; [2]): below the threshold; pKd (GIPC3, Q8TF64; [2]): below the threshold; pKd (LNX1_4, Q8TBB1; [2]): below the threshold; pKd (LNX2_1, Q8N448; [2]): 4.21; pKd (RGS12, O14924; [2]): below the threshold |
| B10 | below the threshold | below the threshold | below the threshold | below the threshold | below the threshold | below the threshold | below the threshold | below the threshold | below the threshold | below the threshold | below the threshold | below the threshold | below the threshold | below the threshold | below the threshold | below the threshold | below the threshold | below the threshold | below the threshold | 4.28 | pKd (O15021): below the threshold; pKd (Q96SB3): below the threshold; pKd (Q9Y3R0): below the threshold |
| B11 | 4.44 | below the threshold | below the threshold | below the threshold | below the threshold | below the threshold | below the threshold | below the threshold | below the threshold | below the threshold | below the threshold | below the threshold | below the threshold | below the threshold | below the threshold | below the threshold | below the threshold | below the threshold | below the threshold | below the threshold | pKd (Q8TB45): below the threshold; pKd (Q8TDM6): below the threshold; pKd (Q9Y3R0): below the threshold |
